Assay results taken from patent US20260098059A1 (ENDOMET BIOSCIENCES, published 2026).
“And” between values parts separate entries of the source, which are not always exact repeats. Identical values can stand only once. Bridges are numbered along the chain shown (N, C = ends). [ ]: non-standard residue; d: D form. αMeF = C[C@](N)(Cc1ccccc1)C(=O)O

T1: β-catenin (UniProt P35222 134-665, limits assumed, biotinylated in the SPR and plate assays)
T1 construct: also called beta catenin; biotinylated β-catenin
T1 sequence (looked up): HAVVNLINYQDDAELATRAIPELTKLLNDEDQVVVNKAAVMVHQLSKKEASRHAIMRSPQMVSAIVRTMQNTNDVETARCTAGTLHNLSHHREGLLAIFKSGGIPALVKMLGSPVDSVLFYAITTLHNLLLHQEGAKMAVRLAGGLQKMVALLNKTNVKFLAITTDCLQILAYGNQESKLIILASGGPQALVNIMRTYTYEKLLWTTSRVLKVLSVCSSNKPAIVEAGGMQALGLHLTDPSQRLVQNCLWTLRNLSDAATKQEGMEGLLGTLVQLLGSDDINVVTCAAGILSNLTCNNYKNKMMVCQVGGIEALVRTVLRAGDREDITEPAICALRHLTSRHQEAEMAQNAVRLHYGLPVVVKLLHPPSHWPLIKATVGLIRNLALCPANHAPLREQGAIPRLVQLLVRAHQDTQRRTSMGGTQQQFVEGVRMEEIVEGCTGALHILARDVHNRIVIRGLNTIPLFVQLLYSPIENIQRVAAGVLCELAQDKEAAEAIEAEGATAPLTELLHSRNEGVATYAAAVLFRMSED


Key:
β-catenin [1] = target: T1, β-catenin; test: competitive FP
Outline: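 Competitive fluorescence polarization with inhibitor peptide serially diluted from 10 nM to 30 uM; polarization read at 470 nm excitation, 520 nm emission. Experiments performed three times.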

β-catenin [2] = target: T1, β-catenin; test: cell-based or functional assay

Row | Kd (β-catenin [1]) | Wnt Reporter EC50 (β-catenin [2]) | Proliferation IC50, Endo cells (β-catenin [2]) | Proliferation IC50, Wnt dependent cells (β-catenin [2]) | Binder
1 | > 10 µM and ≤ 30 µM | > 7.5 µM and ≤ 15 µM | – | – | DWFLICFWKG (HELM PEPTIDE1{D.W.F.L.I.C.F.W.K.G}$PEPTIDE1,PEPTIDE1,1:R3-9:R3$$$V2.0; SMILES CC[C@H](C)[C@@H]1NC(=O)[C@H](CC(C)C)NC(=O)[C@H](Cc2ccccc2)NC(=O)[C@H](Cc2c[nH]c3ccccc23)NC(=O)[C@@H](N)CC(=O)NCCCC[C@@H](C(=O)NCC(=O)O)NC(=O)[C@H](Cc2c[nH]c3ccccc23)NC(=O)[C@H](Cc2ccccc2)NC(=O)[C@H](CS)NC1=O) [SEQ ID NO: 176]
2 | > 0.4 µM and ≤ 1 µM | ≤ 7.5 µM | – | – | Ac-MWFLISFWG-OH [SEQ ID NO: 219]
3 | ≤ 0.4 µM | > 30 µM | – | – | H-MW[αMeF]LISFWG-OH [SEQ ID NO: 133]
4 | > 10 µM and ≤ 30 µM | > 7.5 µM and ≤ 15 µM | – | – | DWFLICFWKG (HELM PEPTIDE1{[ac].D.W.F.L.I.C.F.W.K.G}$PEPTIDE1,PEPTIDE1,2:R3-10:R3$$$V2.0; SMILES CC[C@H](C)[C@@H]1NC(=O)[C@H](CC(C)C)NC(=O)[C@H](Cc2ccccc2)NC(=O)[C@H](Cc2c[nH]c3ccccc23)NC(=O)[C@@H](NC(C)=O)CC(=O)NCCCC[C@@H](C(=O)NCC(=O)O)NC(=O)[C@H](Cc2c[nH]c3ccccc23)NC(=O)[C@H](Cc2ccccc2)NC(=O)[C@H](CS)NC1=O) [SEQ ID NO: 175]
5 | ≤ 0.4 µM | > 30 µM | – | – | WAQKILDEHGQRVWG (HELM PEPTIDE1{[ac].W.[meA].Q.K.I.L.D.E.H.[O=C([C@@H](N[*:1])C1CCCCC1)[*:2]].Q.R.V.W.G.[am]}$PEPTIDE1,PEPTIDE1,5:R3-9:R3$$$V2.0; SMILES CC[C@H](C)[C@@H]1NC(=O)[C@@H](NC(=O)[C@H](CCC(N)=O)NC(=O)[C@H](C)N(C)C(=O)[C@H](Cc2c[nH]c3ccccc23)NC(C)=O)CCCCNC(=O)CC[C@@H](C(=O)N[C@@H](Cc2c[nH]cn2)C(=O)N[C@H](C(=O)N[C@@H](CCC(N)=O)C(=O)N[C@@H](CCCNC(=N)N)C(=O)N[C@H](C(=O)N[C@@H](Cc2c[nH]c3ccccc23)C(=O)NCC(N)=O)C(C)C)C2CCCCC2)NC(=O)[C@H](CC(=O)O)NC(=O)[C@H](CC(C)C)NC1=O) [SEQ ID NO: 404]
6 | > 0.4 µM and ≤ 1 µM | > 30 µM | – | – | WAQKILDEHVQRVWG (HELM PEPTIDE1{W.[meA].Q.K.I.L.D.E.H.V.Q.R.V.W.G.[am]}$PEPTIDE1,PEPTIDE1,4:R3-8:R3$$$V2.0; SMILES CC[C@H](C)[C@@H]1NC(=O)[C@@H](NC(=O)[C@H](CCC(N)=O)NC(=O)[C@H](C)N(C)C(=O)[C@@H](N)Cc2c[nH]c3ccccc23)CCCCNC(=O)CC[C@@H](C(=O)N[C@@H](Cc2c[nH]cn2)C(=O)N[C@H](C(=O)N[C@@H](CCC(N)=O)C(=O)N[C@@H](CCCNC(=N)N)C(=O)N[C@H](C(=O)N[C@@H](Cc2c[nH]c3ccccc23)C(=O)NCC(N)=O)C(C)C)C(C)C)NC(=O)[C@H](CC(=O)O)NC(=O)[C@H](CC(C)C)NC1=O) [SEQ ID NO: 401]
7 | ≤ 0.4 µM | > 30 µM | – | – | WAQKILDEHVQRVWG (HELM PEPTIDE1{[ac].W.[meA].Q.K.I.L.D.E.H.V.Q.R.V.W.G.[am]}$PEPTIDE1,PEPTIDE1,5:R3-9:R3$$$V2.0; SMILES CC[C@H](C)[C@@H]1NC(=O)[C@@H](NC(=O)[C@H](CCC(N)=O)NC(=O)[C@H](C)N(C)C(=O)[C@H](Cc2c[nH]c3ccccc23)NC(C)=O)CCCCNC(=O)CC[C@@H](C(=O)N[C@@H](Cc2c[nH]cn2)C(=O)N[C@H](C(=O)N[C@@H](CCC(N)=O)C(=O)N[C@@H](CCCNC(=N)N)C(=O)N[C@H](C(=O)N[C@@H](Cc2c[nH]c3ccccc23)C(=O)NCC(N)=O)C(C)C)C(C)C)NC(=O)[C@H](CC(=O)O)NC(=O)[C@H](CC(C)C)NC1=O) [SEQ ID NO: 402]
8 | > 0.4 µM and ≤ 1 µM | ≤ 7.5 µM | – | – | Ac-WFLIAFWG-OH [SEQ ID NO: 196]
9 | > 0.4 µM and ≤ 1 µM | ≤ 7.5 µM | – | – | Ac-WFLISFWG-OH (also called Hit 5) [SEQ ID NO: 220]
10 | > 0.4 µM and ≤ 1 µM | ≤ 7.5 µM | – | – | Ac-WFLICFWG-OH [SEQ ID NO: 194]
11 | ≤ 0.4 µM | ≤ 7.5 µM | – | – | Ac-WILISFWG-OH [SEQ ID NO: 195]
12 | > 0.4 µM and ≤ 1 µM | ≤ 7.5 µM | – | – | [Ado]MWFLICFWD-OH (lactam N-10) [SEQ ID NO: 190]
13 | > 0.4 µM and ≤ 1 µM | ≤ 7.5 µM | – | – | XMWFLICFWD (HELM PEPTIDE1{[O=C(CCCCCN[*:1])[*:2]].M.W.F.L.I.C.F.W.D}$PEPTIDE1,PEPTIDE1,1:R1-10:R3$$$V2.0; SMILES CC[C@H](C)[C@@H]1NC(=O)[C@H](CC(C)C)NC(=O)[C@H](Cc2ccccc2)NC(=O)[C@H](Cc2c[nH]c3ccccc23)NC(=O)[C@H](CCSC)NC(=O)CCCCCNC(=O)C[C@@H](C(=O)O)NC(=O)[C@H](Cc2c[nH]c3ccccc23)NC(=O)[C@H](Cc2ccccc2)NC(=O)[C@H](CS)NC1=O) [SEQ ID NO: 189]
14 | > 0.4 µM and ≤ 1 µM | ≤ 7.5 µM | – | – | [Ado]MWFLICAWD-OH (lactam N-10) [SEQ ID NO: 193]
15 | ≤ 0.4 µM | ≤ 7.5 µM | – | – | XMWFLICAWD (HELM PEPTIDE1{[O=C(CCCCCN[*:1])[*:2]].M.W.F.L.I.C.A.W.D}$PEPTIDE1,PEPTIDE1,1:R1-10:R3$$$V2.0; SMILES CC[C@H](C)[C@@H]1NC(=O)[C@H](CC(C)C)NC(=O)[C@H](Cc2ccccc2)NC(=O)[C@H](Cc2c[nH]c3ccccc23)NC(=O)[C@H](CCSC)NC(=O)CCCCCNC(=O)C[C@@H](C(=O)O)NC(=O)[C@H](Cc2c[nH]c3ccccc23)NC(=O)[C@H](C)NC(=O)[C@H](CS)NC1=O) [SEQ ID NO: 192]
16 | ≤ 0.4 µM | > 30 µM | > 30 µM | – | KLWALIXAWD (HELM PEPTIDE1{[ac].K.[Nle].W.[Cha].L.I.[Abu].A.W.D}$PEPTIDE1,PEPTIDE1,2:R3-11:R3$$$V2.0; SMILES CCCC[C@@H]1NC(=O)[C@@H](NC(C)=O)CCCCNC(=O)C[C@@H](C(=O)O)NC(=O)[C@H](Cc2c[nH]c3ccccc23)NC(=O)[C@H](C)NC(=O)[C@H](CC)NC(=O)[C@H]([C@@H](C)CC)NC(=O)[C@H](CC(C)C)NC(=O)[C@H](CC2CCCCC2)NC(=O)[C@H](Cc2c[nH]c3ccccc23)NC1=O, also called Cyclo-acetyl-K*Nle-W-3-cyclohexyl-L-alanine-LI-(amino butyric acid-AWD*-COOH)) [Peptide 2 (SEQ ID NO: 215)]
17 | > 0.4 µM and ≤ 1 µM | > 7.5 µM and ≤ 15 µM | 7.7 µM | 4 µM | KWALIXAWD (HELM PEPTIDE1{[ac].K.W.[Cha].L.I.[Abu].A.W.D}$PEPTIDE1,PEPTIDE1,2:R3-10:R3$$$V2.0; SMILES CC[C@@H]1NC(=O)[C@H]([C@@H](C)CC)NC(=O)[C@H](CC(C)C)NC(=O)[C@H](CC2CCCCC2)NC(=O)[C@H](Cc2c[nH]c3ccccc23)NC(=O)[C@@H](NC(C)=O)CCCCNC(=O)C[C@@H](C(=O)O)NC(=O)[C@H](Cc2c[nH]c3ccccc23)NC(=O)[C@H](C)NC1=O) [SEQ ID NO: 261]
18 | > 0.4 µM and ≤ 1 µM | – | 26.3 µM | 5 µM | KWGLIXAWD (HELM PEPTIDE1{[ac].K.W.[O=C([C@@H](N[*:1])C1CCCCC1)[*:2]].L.I.[Abu].A.W.D}$PEPTIDE1,PEPTIDE1,2:R3-10:R3$$$V2.0; SMILES CC[C@@H]1NC(=O)[C@H]([C@@H](C)CC)NC(=O)[C@H](CC(C)C)NC(=O)[C@H](C2CCCCC2)NC(=O)[C@H](Cc2c[nH]c3ccccc23)NC(=O)[C@@H](NC(C)=O)CCCCNC(=O)C[C@@H](C(=O)O)NC(=O)[C@H](Cc2c[nH]c3ccccc23)NC(=O)[C@H](C)NC1=O) [SEQ ID NO: 262]
19 | ≤ 0.4 µM | > 30 µM | – | – | WWESILDEHVQRVWG (HELM PEPTIDE1{[meW].[meW].E.S.I.L.D.E.H.V.Q.R.V.W.G.[am]}$$$$V2.0; SMILES CC[C@H](C)[C@H](NC(=O)[C@H](CO)NC(=O)[C@H](CCC(=O)O)NC(=O)[C@H](Cc1c[nH]c2ccccc12)N(C)C(=O)[C@H](Cc1c[nH]c2ccccc12)NC)C(=O)N[C@@H](CC(C)C)C(=O)N[C@@H](CC(=O)O)C(=O)N[C@@H](CCC(=O)O)C(=O)N[C@@H](Cc1c[nH]cn1)C(=O)N[C@H](C(=O)N[C@@H](CCC(N)=O)C(=O)N[C@@H](CCCNC(=N)N)C(=O)N[C@H](C(=O)N[C@@H](Cc1c[nH]c2ccccc12)C(=O)NCC(N)=O)C(C)C)C(C)C) [SEQ ID NO: 37]
